B1: TPR t1 (parent)
chain: GACCAAUCUGCCCUCAGAGCUCGAGAACAUCUUCGGAUGCAGAGGAGGCAGGCUUCGGUGGCGCGAUAGCGCCAACGUCCUCAACCUCCAAUGCAUCCCACCACAUGAUGAUGCCUGAAGAGCCUUGGUUUUUUG

Variants of: B1
Assay: polymerase ribozyme fitness, log enrichment relative to wild type (log ratio); higher = more active; in vitro selection for triplet polymerase activity
Procedure, shortened: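 For each subunit of a heterodimeric triplet polymerase ribozyme, a mutant library was built by PCR and transcribed, then taken through a single in vitro selection round in triplicate. Selection involved annealing to a biotinylated primer, the partner subunit and triplets, incubation frozen at −7 °C, gel excision of extended constructs, capture on streptavidin beads and RT-PCR. Genotypes were retained after Illumina sequencing of inputs and outputs only with ≥10 input reads and ≥1 read in each output. Fitness is defined as the logarithm of a genotype's enrichment relative to wild-type enrichment, using inverse-variance-weighted averages across replicates, with the logarithm taken to base 2.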

Row | Variant | polymerase ribozyme fitness (log ratio)
1 | U87A A105U U116C | -3.54
2 | C85G A90U G127C U133A | -4.53
3 | C86G A100U | -0.874
4 | C88U A121C | 1.77
5 | G93A C123A | 0.264
6 | U87A U112A | 1.76
7 | C86U U87A C101A U129G | -3.91
8 | A91U U112A G117C C123U U134A | -2.54
9 | C86U A100C G110U U129C | -4.69
10 | U92A U109G | -5.94
11 | U92A A111G | -3.82
12 | U96A U116G U130A | -3.12
13 | A95C G107A | -7.02
14 | A90C C97U U112C C114A | -3.18
15 | C94U U116C G128U | -3.48
16 | A91G A100C A111U A121G | -3.81
17 | U87G A111U | -2.77
18 | C98A C99A | -6.47
19 | C86G C88A | -1.96
20 | G93C U109A G117U G120C | -6.83
21 | A91U C98U | -3.3
22 | C88U G110C | -3.92
23 | C94U G113U | -2.09
24 | A91C C104U | -1.08

Row | Variant | polymerase ribozyme fitness (log ratio)
25 | A91G U106G A111G | -3.06
26 | A95C C97U | -2.11
27 | A95U C115A | -1.22
28 | C88U C123A | 1.43
29 | C88U C123U | 0.953
30 | C94G C123A C124A | 1.47
31 | C94A A105U A121C | -2.21
32 | C85A C99U | -4.7
33 | A91U C115G | -2.97
34 | A91U C115U | -2.04
35 | A95U C114A | -1.43
36 | U96G G127A | -2.63
37 | U96G C114U | -2.28
38 | A91G U125A | -0.619
39 | G93U G117U | -3.63
40 | U87C G120U | -1.06
41 | C86A A90C G135U | -2.98
42 | U96C C123G G127C | -0.432
43 | G93A G122A U125G | -3.18
44 | C85G G113C | -3.51
45 | C85G G113A | -2.15
46 | A90U G117U | -3.37
47 | C88U C124A | 1.47
48 | C88A C89G C123U U134G | 0.911

Row | Variant | polymerase ribozyme fitness (log ratio)
49 | A95C G113C C124G | -1.76
50 | A95G U112C C124U | 1.01
51 | G93A G117C | -3.87
52 | U96A C104U U132A | -0.322
53 | A90G C101A C123A | -0.711
54 | G93C C114G | -4.17
55 | C94U C104U | -0.577
56 | U87A G113A | -1.76
57 | C94G U106A | -1.14
58 | C97U C115U | -2.49
59 | U92A C124U | -1.43
60 | C86U C114U | -1.7
61 | C88G C104A U112G | -4.26
62 | A91G U112A G127C | -1.56
63 | C86U G110C | -3.72
64 | G93A U132A | -1.15
65 | U92A U116C | -3.44
66 | C89G G113U | -3.93
67 | C89G G113A | -3.42
68 | A91G C97A A118U | -5.26
69 | U92G U109A C124A U131A | -6.86
70 | C85U U96C | -0.852
71 | A90U U112G | -3.12
72 | G93C G127A | -1.89

Row | Variant | polymerase ribozyme fitness (log ratio)
73 | C94U G117C U130A | -6.35
74 | C88A C97U U109A G110C | -6.36
75 | C97G G120U U126C | -4.9
76 | A90C C94U | -1.34
77 | C89A U130G | -1.51
78 | C97A C104A | -5.08
79 | A91U U96G G120U | -1.75
80 | G93C G117C | -4.74
81 | C85U A90U U109G C124A | -6.07
82 | U87A U129A | -0.873
83 | C97G C115G | -3.69
84 | C88A C101A | -1.2
85 | U87A C89U | 0.835
86 | U87C C124U | 0.583
87 | C85U C99U | -4.89
88 | G93U G120A U125A | 0.0882
89 | A95C U109A U112C | -4.49
90 | C86A C115A G128A U133A | -4.43
91 | U96A C114U | -3.4
92 | C85G G110A U126C | -2.99
93 | C89U G117C | -4.26
94 | G93A C98U C124G | 0.653
95 | C94A C115U | -2.44
96 | G93U U112G | -1.63

Row | Variant | polymerase ribozyme fitness (log ratio)
97 | U92C C123G | 0.159
98 | A95G U116A C124U | -0.576
99 | C86A G127C | -1.91
100 | C86A A91U | -2.01
101 | C88U G120U U132C | 0.106
102 | U96A U106A | -0.585
103 | U92G A108U U112A G113A | -6.92
104 | C88G U130G | -0.5
105 | C88G U130C | -0.362
106 | C86A U92A G93C G120A | -4.42
107 | C94A G135U | -1.66
108 | C89A C94A C115U U130A | -3.36
109 | C97A U129A | -4.83
110 | C88U U125G | -1.39
111 | A95U G113A | -2.53
112 | G93A A95G | -1.81
113 | U87G C124A | 0.735
114 | C86U G93U U106C C124U U126A | -2.34
115 | A95U G113A G127A | -2.73
116 | A90C C115A | -0.409
117 | C89A U116G C123G | -3.17
118 | U87G A91U U109A U125C | -5.71
119 | C88U G117A | -1.32
120 | G93C G110U G120A | -3.34

Row | Variant | polymerase ribozyme fitness (log ratio)
121 | A91G | -0.586
122 | A91U | -1.81
123 | A91C | -1.4
124 | U87A C114A | -2.58
125 | C88A A121C | 1.66
126 | C94U G110U | -2.05
127 | C89A A111G | -1.35
128 | C89A A111C | -2.88
129 | U87A C88A U96C | -1.02
130 | C89U C99G A100C C123G | -7.05
131 | U92C U132C | -1.85
132 | G93C G135C | -1.15
133 | U92G C101A | -4.03
134 | U87G C102A C124G | 0.127
135 | G93U U133A | -0.793
136 | A91U A121C C124A | 0.449
137 | C89G G93U G120U | -3.31
138 | U92A A119G G127C | -2.05
139 | U87C A103U | -3.8
140 | C89G C104A | -3.34
141 | C89U C123A | 0.125
142 | C97U G110C | -3.29
143 | A91C C123U | -0.37
144 | C89A A91U | -1.18

Row | Variant | polymerase ribozyme fitness (log ratio)
145 | C89G A100C | -3.25
146 | G93C C102A U116G | -5.28
147 | C88G G120A U129A | -1.48
148 | C85U U87A C88A | -2.23
149 | A91C A118G | -2.33
150 | C86A C114U A119U | -3.57
151 | U87A C124U | 1.04
152 | C97U A103U G113C C115A U116A | -6.04
153 | A90C U92C C102A G120C U132A | -4.27
154 | C86G G93C U132C | -2.42
155 | U96A C99G G110C | -6.97
156 | G93C U112G | -0.938
157 | A90U G110U | -3.55
158 | C97G A118U U126A | -5.69
159 | C89U A100U | -1.41
160 | U96G U106C | -1.3
161 | C97U G110U A111G | -3.06
162 | A90U G93A U112C | -0.194
163 | C97U C124U | 0.498
164 | C89A C123U | -0.0853
165 | C89A A105C | -4.64
166 | U96A G128U | -1.89
167 | U92G C97U G110U | -5.82
